Experimental data from patent publication US20250171549A1 (Amgen, published 2025).
Substitutions are numbered along the chain they refer to. Names may count otherwise. Where no end group is shown, it is not given here.

T1: huCCR8 (1-25)[C25S]-Nb (human, not fully specified; biotinylated for the Fab assay, non-biotinylated for the mAb assay ; biotinylated when captured on streptavidin sensors (Fab assay); non-biotinylated in the mAb assay)
T1 construct: Expressed in human cells; also called CCR8 peptide-Nb fusion; not shown: nanobody (Nb) fusion partner, any linker or tag to it, and the biotin site
T1 peptide: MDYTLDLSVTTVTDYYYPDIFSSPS

T2: huCCR8 (1-12)-Nb (human, not fully specified (C-terminus); also: fused to nanobody, biotinylated in Fab assay)
T2 construct: Expressed in human cells; also called CCR8 peptide-Nb fusion; not shown: nanobody (Nb) fusion partner, any linker or tag to it, and the biotin site
T2 peptide: MDYTLDLSVTTV

B1: huCCR8(32360LC:K38R)_huIgG1z(mAb) (antibody, V domains shown)
VH: EVQLVESGGGLVKPGGSLRLSCAASGFTFSNARMGWVRQAPGKGLEWVGRIKSKTEGGTRDYAAPVKGRFTISRDDSKNTLYLQMNSLKTEDTAVYYCTSYSGVWGQGTMVTVSS
VL: not shown
notes: Afucosylated IgG1, HC without C-terminal lysine
B2: Fab (HCVR SEQ ID NO: 13; LCVR SEQ ID NO: 14) (Fab, V domains shown)
VH: B1 VH
VL: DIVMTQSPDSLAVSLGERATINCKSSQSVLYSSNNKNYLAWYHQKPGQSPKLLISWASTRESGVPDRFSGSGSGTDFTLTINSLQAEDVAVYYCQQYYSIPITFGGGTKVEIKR
notes: also called Antibody 1 Fab
B3: Antibody 6.0 IgG1 (antibody, V domains shown)
VH: QVQLVESGGGVVQPGRSLRLSCEASGFTFSSYVMHWVRQAPGKGLEWVSVISYDGSSQYYTDSVKGRFTISRDNSKNTLNLQMNSLRAEDTAVYYCVRGRLATAILFDYWGQGTLVTVSS
VL: DILMTQTPLSLSVTPGQPASISCKSSQSLLYSDGKTYLFWYLQRPGQPPQLLIYEVSNRFSGVPDRFSGSGSGTDFTLKISRVEAEDVGIYYCMQSIKLPLTFGGGTKVEIKR
B4: Antibody 5.0 IgG1 (antibody, V domains shown)
VH: QVQLVESGGGVVQPGRSLRLSCAASGFTFSSYGMHWVRQAPGKGLEWVAVISYDGSNKYYADSVKGRFTISRDNSKNTLYLQMNSLRAEDTAVYYCARGRYFDWFLFDYWGQGTLVTVSS
VL: B3 VL with I2T, L3V, Y31H, R44K, Y54S, I90F, I97L, K98R
B5: Antibody 3.0 IgG1 (antibody, V domains shown)
VH: EVQLVESGGGLVKPGGSLRLSCAASGFIFSNAWMSWVRQAPGKGLEWVARIKRRTDGGTTDYAAPVKDRFTISRDDSKNTLFLQMNSLKTEDTAVYYCTTVTMVRGVIADYWGQGTLVTVSS
VL: EIVLTQSPGTLSLSPGERATLSCRASQSVSSGSLAWYQQKLGQAPRLLIYGASSRATGIPDRFSGSGSGTDFTLTISSLEPEDFAVYYCQQYGSSRTFGQGTKVELKR
B6: Antibody 4.0 IgG1 (antibody, V domains shown)
VH: B5 VH with A49G, R54K, D68G, F82Y, Q84L, T90I, T100V, M103L, V107I, A109F
VL: B5 VL with R18S, A25V, G32S, S33Q, L41P, S78R, S94N, L106I
B7: Antibody 2.1 IgG1 (LC: F2I_P51S_H53Q_L103V_N148K, HC: K87N_S94N_V98A)(LC: Y25A_S26A, HC: A71I_D72R) (antibody, V domains shown)
VH: QVQLVESGGGVVQPGRSLRLSCAASGFTFSNYGMHWVRQAPGKGLEWVAVISYDGSNKFYIRSVKGRFTISRDNSKNTLYLQMNSLRAEDTAVYYCARAGGIGRFDYWGQGTLVTVSS
VL: B3 VL with L3V, S25A, S26A, Y31H, R44K, P48S, I90V, S96T, I97L
B8: huCCR8_44379 (VH: D61S, VL: N67Q_M99G_W109F_S111A)_huIgG1z (mAb) (antibody, V domains shown)
VH: QVQLVESGGGVVQPGRSLRLSCAASGFTFSNYGFHWVRQTPGKGLEWVAVISYSGSNRYYADSVKGRFTISRDNSKNTLYLQMNSLRGEDTALYYCARVYYGSGTYYKNRYYYGMDVWGQGTTVTVSS
VL: SYELTQPPSVSVALGQTARITCGGHNIGSKGVHWYQQKPGQAPVLVIYRQSNRPSGIPERFSGSNSGNTATLTISGTQAGDEADYYCQAFDAGTVVFGGGTQLTVLG
notes: Engineered from scFv MPK20299-A4; afucosylated IgG1, HC without C-terminal lysine
B9: huCCR8_44379 (VH: D61A_D72A, VL: N67Q_M99E_W109F_S111A)_huIgG1z (mAb) (antibody, V domains shown)
VH: B8 VH with S54A, D62A
VL: B8 VL with G80E
notes: as for B8
B10: huCCR8_44379 (VH: D72S, VL: N67A_S68A_M99G_W109F_S111A)_huIgG1z (mAb) (antibody, V domains shown)
VH: B8 VH with S54D, D62S
VL: B8 VL with Q50A, S51A
notes: as for B8
B11: Antibody 5.4 IgG1 (VH: G40A, VL: S57Y_E58L_V67T_F103V)_huIgG1z mAb (antibody, V domains shown)
VH: B4 VH with G33A
VL: B3 VL with I2T, L3V, Y31H, R44K, E55L, V56T, I90V, I97L, K98R
B12: Antibody 6.1 IgG1 (VH: S67R_A114S_I134P, VL: F71L)_huIgG1z mAb (antibody, V domains shown)
VH: B3 VH with S57R, A104S, I105P
VL: B3 VL with F60L
B13: Antibody 5.5 IgG1 (VH: G40P_M41V, VL: S57Y_E58L_V67T_F103V)_huIgG1z mAb (antibody, V domains shown)
VH: B4 VH with G33P, M34V
VL: B3 VL with I2T, L3V, Y31H, R44K, E55L, V56T, I90V, I97L, K98R
B14: Antibody 5.1 IgG1 (VH: F134T, VL: S34R_S57Y_F103V)_huIgG1z mAb (antibody, V domains shown)
VH: B4 VH with F105T
VL: B3 VL with I2T, L3V, Y31H, S32R, R44K, I90V, I97L, K98R
B15: Antibody 5.3 IgG1 (VH: A71S_D72R, VL: S57Y_E58L_V67S_F103V)_huIgG1z mAb (antibody, V domains shown)
VH: B4 VH with A61S, D62R
VL: B3 VL with I2T, L3V, Y31H, R44K, E55L, V56S, I90V, I97L, K98R
B16: Antibody 6.2 IgG1 (VH: S67R_Q68A_L135K_F136L, VL: S109T_I110L)_huIgG1z mAb (antibody, V domains shown)
VH: B3 VH with S57R, Q58A, L106K, F107L
VL: B3 VL with S96T, I97L
B17: Antibody 5.2 IgG1 (VH: G40P_F134T, VL: S57Y_E58L_V67R_F103V)_huIgG1z mAb (antibody, V domains shown)
VH: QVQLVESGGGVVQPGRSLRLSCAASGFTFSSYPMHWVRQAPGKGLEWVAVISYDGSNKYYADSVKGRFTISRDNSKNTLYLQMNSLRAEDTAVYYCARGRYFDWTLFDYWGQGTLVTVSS
VL: B3 VL with I2T, L3V, Y31H, R44K, E55L, V56R, I90V, I97L, K98R

What follows are binders tested against T3, human CCR8 (human, UniProt P51685 1-355) (assay: cell-based or functional assay).
T3 sequence (P51685 whole entry): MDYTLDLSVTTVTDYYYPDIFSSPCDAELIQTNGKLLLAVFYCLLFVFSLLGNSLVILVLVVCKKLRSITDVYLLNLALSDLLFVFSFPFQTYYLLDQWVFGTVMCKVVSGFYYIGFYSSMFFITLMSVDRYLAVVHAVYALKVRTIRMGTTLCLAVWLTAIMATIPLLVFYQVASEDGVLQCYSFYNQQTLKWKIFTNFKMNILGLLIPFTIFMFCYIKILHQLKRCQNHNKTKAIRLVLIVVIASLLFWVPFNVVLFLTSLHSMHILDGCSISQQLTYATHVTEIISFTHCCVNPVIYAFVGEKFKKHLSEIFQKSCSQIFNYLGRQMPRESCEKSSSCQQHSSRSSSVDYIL

Binder | ADCC, Percent Non-Viable cells (EC50 pM), Donor 8 | ADCC, Percent Non-Viable cells (EC50 pM), Donor 9
B1 | 3 pM | 2.7 pM

Target: T1, huCCR8 (1-25)[C25S]-Nb
Assay: BLI (Octet), biotinylated peptide-Nb on streptavidin sensor, Fab in solution

Kd | koff | kon | Binder
17.4 nM | 0.0106 s⁻¹ | 606000 M⁻¹ s⁻¹ | B2

Target: T3, human CCR8
Assay: cell-based or functional assay
Remark: another data set of the same source

Percent Inhibition (IC50 nM) of CCL1-dependent chemotaxis of HUT78 cells | Binder
20.1 nM | B3
13.6 nM | B4
3.7 nM | B5
8.4 nM | B6

Target: T3, human CCR8
Assay: cell-based or functional assay
Remark: another data set of the same source

Binder | ADCC, Percent Non-Viable cells (EC50 pM), Donor 1 | ADCC, Percent Non-Viable cells (EC50 pM), Donor 2 | ADCC, Percent Non-Viable cells (EC50 pM), Donor 3
B7 | < 0.256 pM | 13.3 pM | 1 pM
B3 | 2 pM | 37.4 pM | 
B4 | < 0.256 pM | 167 pM | 
B5 | < 0.256 pM | 15.5 pM | 
B6 | < 0.256 pM | 218 pM | 

Target: T2, huCCR8 (1-12)-Nb
Assay: BLI (Octet), mAb on anti-huIgG Fc sensor, peptide-Nb in solution
Method: (§1) Binding affinities (KD equilibrium dissociation constant) and rate constants (kₐ association rate constant, kd dissociation rate constant) of an Antibody 1 Fab and CCR8-binding monoclonal antibodies (mAbs) of the present invention to a CCR8 1-12 epitope (SEQ ID NO: 82)-nanobody (Nb) fusion protein were measured using an OCTET® Biolayer Interferometry system (Sartorius AG, Göttingen, Germany). The CCR8-nanobody fusion proteins were expressed in human cells. For Fab binding, biotinylated CCR8 peptide-Nb fusions were captured on streptavidin SAX biosensors to loading levels between 2 and 4 nm and then incubated with a dilution series of the soluble Fab (top 100 nM, 6-point, 1:3 serial dilution) for 300 seconds followed by 500 seconds in buffer for dissociation. For mAb binding, mAbs were captured on an anti-huIgG Fc capture biosensor to 1 to 2 nm loading level and then incubated with a dilution series of non-biotinylated CCR8 peptide-Nb fusions (top 100 nM, 6-point, 1:3 serial dilution) for 300 seconds followed by 500 seconds in buffer for dissociation.
(§2) The OCTET® system acquires data over time (seconds) using a mechanism called Biolayer Interferometry; as proteins bind to biosensor tips, a sensitive binding signal in nm is measured by the instrument. All fiber optic tips were used once and then discarded, i.e., no regeneration. OCTET® buffer baselines, dissociation steps, and protein dilutions were made with OCTET® buffer (10 mM TRIS pH 7.5, 150 mM NaCl, 1 mM CaCl₂), 0.13% (v/v) Triton X-100 and 0.10 mg/mL BSA).
(§3) Raw data was processed with GeneData Screener v18 SPR package which uses the same data processing as the OCTET® instrument Data Analysis software (subtract average of two reference wells per column; Align Y-axis to baseline; Interstep correction align to dissociation; and Savitzky-Golay filtering). Each Fab or mAb interaction was grouped into its own sensorgram and globally fit with a 1:1 binding model to determine the association rate constant (kₐ; units M⁻¹ sec⁻¹) and the dissociation rate constant (kd; units sec⁻¹).

Kd | koff | kon | Binder
8.1 nM | 0.00107 s⁻¹ | 132000 M⁻¹ s⁻¹ | B8
9.5 nM | 0.00134 s⁻¹ | 142000 M⁻¹ s⁻¹ | B9
9 nM | 0.0011 s⁻¹ | 122000 M⁻¹ s⁻¹ | B10
60.6 nM | 0.024 s⁻¹ | 397000 M⁻¹ s⁻¹ | B1

Target: T2, huCCR8 (1-12)-Nb
Assay: BLI (Octet), biotinylated peptide-Nb on streptavidin sensor, Fab in solution
Method: as §1, §2, §3

Kd | koff | kon | Binder
22.6 nM | 0.0132 s⁻¹ | 584000 M⁻¹ s⁻¹ | B2

Target: T3, human CCR8
Assay: cell-based or functional assay
Remark: another data set of the same source

Binder | ADCC, Percent Non-Viable cells (EC50 pM), Donor 4 | ADCC, Percent Non-Viable cells (EC50 pM), Donor 5 | ADCC, Percent Non-Viable cells (EC50 pM), Donor 6
B11 | 3.43 pM | 0.889 pM | 4.62 pM
B12 | 4.52 pM | 1.05 pM | 3.62 pM
B13 | 4.89 pM | 0.837 pM | 3.77 pM
B14 | 3.68 pM | 0.865 pM | 4.89 pM
B15 | 3.34 pM | 0.642 pM | 3.48 pM
B16 | 4.12 pM | 2.04 pM | 5.14 pM
B17 | 6.2 pM | 1.01 pM | 6.11 pM

Target: T1, huCCR8 (1-25)[C25S]-Nb
Assay: BLI (Octet), mAb on anti-huIgG Fc sensor, peptide-Nb in solution

Kd | koff | kon | Binder
7.2 nM | 0.000798 s⁻¹ | 110000 M⁻¹ s⁻¹ | B8
7.8 nM | 0.00114 s⁻¹ | 146000 M⁻¹ s⁻¹ | B9
9.8 nM | 0.000975 s⁻¹ | 99300 M⁻¹ s⁻¹ | B10

Target: T3, human CCR8
Assay: cell-based or functional assay
Remark: another data set of the same source

Binder | ADCC, Percent Non-Viable cells (EC50 pM), Donor 7
B8 | 0.28 pM
B9 | 0.52 pM
B10 | 0.48 pM
